Data taken from publication doi:10.1101/2025.08.06.668938 (bioRxiv, 2025).
Changes are numbered by the printed parent chain.

B1: adalimumab VH paired with LICHEN-5 light sequence (pairing_CDRs) (antibody, V domains shown)
VH: not shown
VL: EIVLTQSPATLSLSPGERATLSCRASQGIRNYLAWYQQKPGQAPRLLIYAASTLQSGIPARFSGSGSGTDFTLTISSLEPEDFAVYYCQRYNRAPYTFGQGTKLEIK
notes: as the VH of m3 (native VH of adalimumab); Whole antibody; also called LICHEN-5 (adalimumab)
B2: adalimumab VH paired with germline IGKV7-3*01/IGKJ1*01 with the adalimumab light CDRs grafted (antibody, V domains shown)
VH: not shown
VL: DIVLTQSPASLAVSPGQRATITCRASQGIRNYLAWYQQKPGQPPKLLIYAASTLQSGVPARFSGSGSGTDFTLTINPVEANDTANYYCQRYNRAPYTFGQGTKVEIK
notes: as the VH of m3 (native VH of adalimumab); germline V-gene IGKV7-3*01 combined with J-gene IGKJ1*01, all three light CDRs of adalimumab (Kabat definition) grafted; Whole antibody; also called Germline-3+ (adalimumab)
B3: adalimumab VH paired with LICHEN-3 light sequence (pairing_CDRs) (antibody, V domains shown)
VH: not shown
VL: DIVMTQTPPSSPVTLGQPASISCRASQGIRNYLAWYQQKPGQSPKLLISAASTLQSGVPSRFSGSGSGTDFTLKISSLQPEDVATYYCQRYNRAPYTFGQGTKLEIK
notes: as the VH of m3 (native VH of adalimumab); Whole antibody; also called LICHEN-3 (adalimumab)
B4: adalimumab VH paired with LICHEN-2 light sequence (pairing_CDRs) (antibody, V domains shown)
VH: not shown
VL: DIQMTQSPSFVSASVGDRVTITCRASQGIRNYLAWYQQKPGKAPEVLISAASTLQSGVPSRFSGSGSGTEFTLTITNLQPEDSATYFCQRYNRAPYTFGQGTRLDIK
notes: as the VH of m3 (native VH of adalimumab); Whole antibody; also called LICHEN-2 (adalimumab)
B5: pembrolizumab (antibody, V domains shown)
VH: QVQLVQSGVEVKKPGASVKVSCKASGYTFTNYYMYWVRQAPGQGLEWMGGINPSNGGTNFNEKFKNRVTLTTDSSTTTAYMELKSLQFDDTAVYYCARRDYRFDMGFDYWGQGTTVTVSS
VL: EIVLTQSPATLSLSPGERATLSCRASKGVSTSGYSYLHWYQQKPGQAPRLLIYLASYLESGVPARFSGSGSGTDFTLTISSLEPEDFAVYYCQHSRDLPLTFGGGTKVEIK
notes: native VH of the therapeutic pembrolizumab (humanised, IGHV1); Whole antibody (detected by anti-human IgG Fc); also called therapeutic; positive control (pembrolizumab panels)
B6: pembrolizumab VH paired with germline IGKV3-20*01/IGKJ1*01 with the pembrolizumab light CDRs grafted (antibody, V domains shown)
VH: B5 VH
VL: B5 VL with A9G, V62I, A64D, S81R, G104Q
notes: as the VH of m13 (native VH of pembrolizumab); germline V-gene IGKV3-20*01 combined with J-gene IGKJ1*01, all three light CDRs of pembrolizumab (Kabat definition) grafted; Whole antibody; also called Germline-1+ (pembrolizumab)
B7: pembrolizumab VH paired with germline IGKV7-3*01/IGKJ1*01 with the pembrolizumab light CDRs grafted (antibody, V domains shown)
VH: B5 VH
VL: DIVLTQSPASLAVSPGQRATITCRASKGVSTSGYSYLHWYQQKPGQPPKLLIYLASYLESGVPARFSGSGSGTDFTLTINPVEANDTANYYCQHSRDLPLTFGQGTKVEIK
notes: as the VH of m13 (native VH of pembrolizumab); germline V-gene IGKV7-3*01 combined with J-gene IGKJ1*01, all three light CDRs of pembrolizumab (Kabat definition) grafted; Whole antibody; also called Germline-3+ (pembrolizumab)
B8: pembrolizumab VH paired with germline IGKV3-11*01/IGKJ1*01 with the pembrolizumab light CDRs grafted (antibody, V domains shown)
VH: B5 VH
VL: B5 VL with V62I, G104Q
notes: as the VH of m13 (native VH of pembrolizumab); germline V-gene IGKV3-11*01 combined with J-gene IGKJ1*01, all three light CDRs of pembrolizumab (Kabat definition) grafted; Whole antibody; also called Germline-2+ (pembrolizumab)

These binders were tested against T1, TNF-α (Homo sapiens, UniProt P01375, biotinylated (said of the BLI experiment)) (assay: ELISA; screening ELISA; antigen coated at 1 µg/mL (30 ng/well) in bicarbonate coating buffer on 384-well MaxiSorp overnight at 4°C; blocked with 4% milk in PBS; antibody at 1 µg/mL in PBS, 2 h at room temperature; goat anti-human IgG Fc-HRP, TMB, absorbance at 450 nm). Conditions: both partners purified.
T1 construct: TNF-α, a pro-inflammatory cytokine, target of adalimumab; also called Purified TNF-α; biotinylated TNF-α; source: bought: Acro Biosciences (Cat #TNA-H82E3, Lot #BV2043-241DF11R8)
T1 sequence (P01375 77-233): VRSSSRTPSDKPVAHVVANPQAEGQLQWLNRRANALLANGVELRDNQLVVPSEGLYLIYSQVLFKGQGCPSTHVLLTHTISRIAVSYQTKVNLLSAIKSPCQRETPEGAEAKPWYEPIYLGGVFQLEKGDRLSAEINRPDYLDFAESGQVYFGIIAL

Binding result, binds:
B1, B2, B3, B4

What follows are binders tested against T2, Human PD-1 (human, UniProt Q15116) in the same assay as above. Conditions: both partners purified.
T2 construct: programmed death receptor 1 (PD-1), human, target of pembrolizumab; The printed catalogue number is that of the TNF-α product, probably a slip; also called programmed death receptor 1; Target (pembrolizumab panels); source: bought: Acro Biosciences (printed Cat #TNA-H82E3, Lot #BV2043-241DF1-1R8)
T2 sequence (Q15116 25-170): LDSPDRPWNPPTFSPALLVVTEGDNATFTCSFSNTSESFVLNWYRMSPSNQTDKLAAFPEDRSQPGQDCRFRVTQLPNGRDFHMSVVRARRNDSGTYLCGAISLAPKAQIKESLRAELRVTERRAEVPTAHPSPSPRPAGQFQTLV

Binding result, binds:
B5, B6, B7, B8
